# Reference: the supplement of paper PMC10724198
# ± gives the standard deviation of the averaged measurements.
# Assays:
# Saccharomyces cerevisiae [1] = experiment: protein stability index of tFT-peptide fusion (C-terminal peptide) (PSI (0-1 scale)); higher = more stable (slower turnover)
# Experimental: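 MPS profiling in S. cerevisiae of the tFT-X12 degron library: putative degron peptides plus stable controls, 12 aa, fused to the C-terminus of a sfGFP-mCherry timer. Cells are FACS-sorted into 8 mCherry/sfGFP bins and deep-sequenced. PSI runs from 0 (unstable) to 1 (stable). Backgrounds are wild type, das1Δ and doa10Δ at 30 °C, and wild type, das1Δ, cdc34-1 and cdc53-1 at 37 °C; 2-3 technical replicates each.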
# Saccharomyces cerevisiae [2] = experiment: as above; conditions: genetic background: wild type; temperature: 30 C
# [3] = genetic background: cdc34-1, temperature: 37 C
# [4] = genetic background: cdc53-1, temperature: 37 C
# [5] = genetic background: das1 deletion, temperature: 30 C
# [6] = genetic background: das1 deletion, temperature: 37 C
# [7] = genetic background: doa10 deletion, temperature: 30 C
# [8] = genetic background: wild type, temperature: 30 C
# [9] = genetic background: wild type, temperature: 37 C
# 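Also: PSI is a weighted mean of sequencing reads over stability bins, variants kept only with over 10 reads, mCherry proximal and sfGFP distal, peptide attached via GGGS linker.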
Sequence,protein stability index (Saccharomyces cerevisiae [1]; [3]),protein stability index (Saccharomyces cerevisiae [1]; [4]),protein stability index (Saccharomyces cerevisiae [1]; [5]),protein stability index (Saccharomyces cerevisiae [1]; [6]),protein stability index (Saccharomyces cerevisiae [1]; [7]),protein stability index (Saccharomyces cerevisiae [1]; [8]),protein stability index (Saccharomyces cerevisiae [1]; [9]),protein stability index (Saccharomyces cerevisiae [2])
GGVWSAFAVWVC,0.188 ± 0.0039,0.338 ± 0.027,0.288 ± 0.025,0.446 ± 0.0074,0.0761 ± 0.0025,0.0784 ± 0.013,0.0546 ± 0.014,0.133 ± 0.0023
GGWGSSLGVWVG,0.663 ± 0.026,0.7542 ± 0.0024,0.644 ± 0.018,0.7674 ± 0.0045,0.178 ± 0.017,0.217 ± 0.015,0.4022 ± 0.0038,0.253 ± 0.011
GIANHAMVIVVL,0.444 ± 0.011,0.469 ± 0.0052,0.322 ± 0.037,0.508 ± 0.0078,0.278 ± 0.0066,0.312 ± 0.017,0.468 ± 0.033,0.404 ± 0.04
GIPVRRLLFLVA,0.419 ± 0.0098,0.478 ± 0.013,0.335 ± 0.033,0.5019 ± 0.0023,0.145 ± 0.0062,0.17 ± 0.024,0.311 ± 0.021,0.292 ± 0.051
GKWVWSSFVWFG,0.457 ± 0.033,0.541 ± 0.011,0.509 ± 0.023,0.674 ± 0.03,0.0899 ± 0.0064,0.0965 ± 0.021,0.0945 ± 0.0042,0.19 ± 0.0062
GLFCCFLCLSVF,0.241 ± 0.0047,0.297 ± 0.018,0.241 ± 0.041,0.343 ± 0.015,0.2 ± 0.004,0.204 ± 0.026,0.275 ± 0.017,0.261 ± 0.015
GLFVGCWVFLVL,0.344 ± 0.0095,0.445 ± 0.0049,0.307 ± 0.044,0.525 ± 0.012,0.294 ± 0.0069,0.297 ± 0.037,0.486 ± 0.015,0.387 ± 0.061
GLIICRRCLWCC,0.49 ± 0.01,0.527 ± 0.029,0.36 ± 0.031,0.5909 ± 0.00095,0.1721 ± 0.00088,0.182 ± 0.021,0.255 ± 0.01,0.267 ± 0.05
GLLSLSGLRWFC,0.672 ± 0.051,0.74727 ± 0.00044,0.659 ± 0.021,0.763 ± 0.022,0.163 ± 0.021,0.19 ± 0.035,0.462 ± 0.012,0.276 ± 0.11
GLSWRLVWVVII,0.0421 ± 0.0072,0.0599 ± 0.011,0.132 ± 0.02,0.189 ± 0.0048,0.0916 ± 0.006,0.0531 ± 0.0056,0.0493 ± 0.0093,0.103 ± 0.011
GMNGLFFIAMLG,0.53 ± 0.033,0.645 ± 0.041,0.514 ± 0.018,0.642 ± 0.035,0.195 ± 0.016,0.195 ± 0.029,0.398 ± 0.015,0.362 ± 0.02
GRLVPVILLKLV,0.3011 ± 0.0019,0.471 ± 0.015,0.441 ± 0.031,0.5625 ± 0.00087,0.0719 ± 0.018,0.0651 ± 0.015,0.0817 ± 0.0024,0.099045 ± 4e-05
GRRPVVDFLPCL,0.692 ± 0.045,0.7222 ± 0.004,0.697 ± 0.029,0.745 ± 0.009,0.7146 ± 0.0027,0.719 ± 0.037,0.742 ± 0.023,0.736 ± 0.0074
GSITFFKMVQSG,0.656 ± 0.021,0.748 ± 0.012,0.622 ± 0.021,0.744 ± 0.012,0.376 ± 0.014,0.417 ± 0.028,0.687 ± 0.011,0.469 ± 0.023
GSLPERPLRYVC,0.516 ± 0.035,0.6878 ± 0.004,0.651 ± 0.017,0.7239 ± 0.0021,0.1 ± 0.028,0.0973 ± 0.013,0.148 ± 0.016,0.162 ± 0.01
GSRRYYFTWVYQ,0.454 ± 0.038,0.697 ± 0.013,0.655 ± 0.019,0.722 ± 0.019,0.0716 ± 0.016,0.0885 ± 0.015,0.0876 ± 0.024,0.1178 ± 0.00012
GTEFSNVITYLV,0.713 ± 0.018,0.758 ± 0.018,0.6288 ± 0.003,0.775 ± 0.021,0.34 ± 0.0043,0.389 ± 0.027,0.6103 ± 0.0027,0.493 ± 0.08
GTLVFTYLVLRC,0.0997 ± 0.012,0.0693 ± 0.0078,0.197 ± 0.02,0.252 ± 0.032,0.365 ± 0.027,0.167 ± 0.035,0.229 ± 0.0083,0.314 ± 0.008
GTRAGNPDRQRS,0.678 ± 0.052,0.759 ± 0.011,0.638 ± 0.034,0.714 ± 0.025,0.656 ± 0.021,0.632 ± 0.022,0.706 ± 0.016,0.706 ± 0.013
GVRAGVRRAGVG,0.308 ± 0.019,0.418 ± 0.0075,0.399 ± 0.0055,0.414 ± 0.014,0.3927 ± 0.0033,0.382 ± 0.0068,0.402 ± 0.0045,0.402 ± 0.011

Sequence,protein stability index (Saccharomyces cerevisiae [1]; [3]),protein stability index (Saccharomyces cerevisiae [1]; [4]),protein stability index (Saccharomyces cerevisiae [1]; [5]),protein stability index (Saccharomyces cerevisiae [1]; [6]),protein stability index (Saccharomyces cerevisiae [1]; [7]),protein stability index (Saccharomyces cerevisiae [1]; [8]),protein stability index (Saccharomyces cerevisiae [1]; [9]),protein stability index (Saccharomyces cerevisiae [2])
GVRRRQLIWSVC,0.532 ± 0.022,0.644 ± 0.014,0.468 ± 0.024,0.656 ± 0.0066,0.145 ± 0.0088,0.164 ± 0.039,0.28 ± 0.011,0.241 ± 0.092
GVVCWLVVTGFL,0.3865 ± 0.0018,0.48 ± 0.0076,0.286 ± 0.058,0.524 ± 0.0095,0.255 ± 0.0087,0.3 ± 0.019,0.463 ± 0.052,0.429 ± 0.013
GVVVGVLLVCGW,0.268 ± 0.028,0.435 ± 0.0061,0.28 ± 0.037,0.489 ± 0.0051,0.223 ± 0.016,0.265 ± 0.013,0.4614 ± 0.0016,0.36 ± 0.0081
HCNRLIFWYKCT,0.508 ± 0.082,0.745 ± 0.025,0.656 ± 0.052,0.723 ± 0.035,0.189 ± 0.0086,0.224 ± 0.032,0.298 ± 0.0068,0.288 ± 0.0074
HDLRRRVVSVMV,0.48 ± 0.046,0.4601 ± 0.0032,0.337 ± 0.025,0.55 ± 0.022,0.258 ± 0.013,0.297 ± 0.03,0.47615 ± 0.00044,0.372 ± 0.061
HFLRYCSWFGLL,0.656 ± 0.032,0.745 ± 0.015,0.6558 ± 0.0024,0.781 ± 0.013,0.142 ± 0.014,0.171 ± 0.017,0.353 ± 0.0095,0.15 ± 0.0097
HNLIRKHAKESS,0.63 ± 0.083,0.702 ± 0.0032,0.641 ± 0.034,0.699 ± 0.015,0.171 ± 0.036,0.249 ± 0.016,0.459 ± 0.054,0.394 ± 0.085
HPLYWRCVVVLN,0.213 ± 0.034,0.243 ± 0.024,0.211 ± 0.026,0.3733 ± 0.00077,0.073 ± 0.012,0.066 ± 0.031,0.0862 ± 0.015,0.15 ± 0.044
HSPPVPFPPPTS,0.647 ± 0.068,0.733 ± 0.035,0.651 ± 0.034,0.72 ± 0.0074,0.688 ± 0.012,0.672 ± 0.017,0.694 ± 0.024,0.358 ± 0.033
HVRLRFQPVLFV,0.527 ± 0.027,0.5455 ± 0.0014,0.404 ± 0.029,0.5487 ± 0.0044,0.356 ± 0.01,0.382 ± 0.026,0.5139 ± 0.0024,0.462 ± 0.0049
HVSVIRRGICCA,0.266 ± 0.014,0.2978 ± 0.0018,0.271 ± 0.026,0.398 ± 0.0092,0.233 ± 0.0093,0.278 ± 0.015,0.3675 ± 0.0027,0.374 ± 0.034
ICQLLKFPLFWC,0.542 ± 0.025,0.567 ± 0.024,0.521 ± 0.024,0.7207 ± 0.0058,0.311 ± 0.019,0.288 ± 0.026,0.4916 ± 0.0032,0.113 ± 0.034
ICSRCLVTVLSC,0.4098 ± 0.0039,0.445 ± 0.0063,0.296 ± 0.037,0.514 ± 0.0071,0.198 ± 0.0024,0.217 ± 0.039,0.367 ± 0.015,0.311 ± 0.017
ICWVSLYFSMLV,0.457 ± 0.018,0.479 ± 0.019,0.373 ± 0.018,0.5069 ± 0.0045,0.3348 ± 0.00038,0.333 ± 0.025,0.464 ± 0.028,0.406 ± 0.084
IFAWPFSATIPW,0.74 ± 0.022,0.81258 ± 0.00076,0.696 ± 0.012,0.80758 ± 0.00033,0.706 ± 0.0086,0.7 ± 0.011,0.788 ± 0.032,0.784 ± 0.021
IFFYPFLIFCFV,0.251 ± 0.022,0.281 ± 0.026,0.267 ± 0.027,0.396 ± 0.019,0.2722 ± 0.00072,0.238 ± 0.032,0.332 ± 0.012,0.325 ± 0.018
IFVLLSYYPLFV,0.263 ± 0.016,0.279 ± 0.012,0.265 ± 0.019,0.422 ± 0.012,0.288 ± 0.016,0.243 ± 0.027,0.391 ± 0.0059,0.338 ± 0.018
IGSARIKLLCYH,0.6024 ± 0.0044,0.705 ± 0.014,0.592 ± 0.017,0.7434 ± 0.0024,0.124 ± 0.017,0.165 ± 0.027,0.331 ± 0.031,0.213 ± 0.0061
ILHRRCGLLLQI,0.47 ± 0.04,0.506 ± 0.0066,0.447 ± 0.015,0.538 ± 0.017,0.273 ± 0.0094,0.278 ± 0.025,0.4161 ± 0.0032,0.343 ± 0.016
